The values that follow come from the nanobody polyreactivity screen of Harvey et al. (2022).

A short description of this data set: yeast display, Sf9 membrane polyspecificity reagent, FACS + sequencing; frameworks hold sequencing errors. In a few lines:
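A nanobody's polyreactivity label depends on the gate it was sorted from. Yeast display cells were stained with 10% biotinylated, detergent-solubilized Sf9 membrane reagent for 1 hour at 4 °C, enriched on streptavidin microbeads and sorted by FACS. The low and high (top ~1%) gates were set on anti-HA fluorescence for expression and streptavidin fluorescence for reagent binding.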
Take “QVQLVESGGGLVQAGGSLRLSCAASGSTFDGNAMGWYRQAPGKERELVATITRRGGSTNYADSVKGRFTISRDNAKNTVYLQMNSLKPEDTAVYYCATADAHSSAAGEDYWGQGTQVTVSS”: the “polyreactivity (PSR sort gate)” value is given as “low polyreactivity”.
In the case of “QVQLVESGGGLVQAGGSLRLICAASGSILYKYAMGWYRQAPGKERELVAAISSRGGNTYYADSVKGRFTISRDNSKNTVYLQMNSLKPEDTAVYYCAADLWAGKYGEYDYWGQGTQVTVSS”, the “polyreactivity (PSR sort gate)” value was “high polyreactivity”.
As for “QVQLVESGGGLVQAGGSLRLSCAASGSIFRYYVMGWYRQAPGKERELVAAISWSGGTTYYADSVKGRFTISRDNAKNTVYLQMNSLKPEDTAVYYCAAKGPLGYYHATDYHDYWGQGTQVTVSS”, the “polyreactivity (PSR sort gate)” value is “high polyreactivity”.
As to “HVQLVETGGGLVQAGGSLRLSCAASGSTFYIYAMGCYRPAPGKEREFVAAIDFSGSSTYADSVKGRFTISRDNAKNTVYLQMNSLKPEDTAVYYCSARWYLTGGWTWVSFSHDYWGQGTQVTVSS”, the “polyreactivity (PSR sort gate)” value was “low polyreactivity”.
As to “QVQLVESGGGVVQAGGSLRLSCSASGRTLDKNVMGWYRQAPGKERELVAAINTGGRTYYADSVKGRFTISRDNAKNTVYLQMNSLKPEDTAVYYCAKEGHVNPRPTVGGDYWGQGTQVTVSS”, the “polyreactivity (PSR sort gate)” value is reported as “low polyreactivity”.
As for “QDQLVESVGGLDQAGGSLPLSCDASGSIFPDYAMGWYRPAPGKERELVAAITSSGSTNNADSVKGLFTISRDNAKNTVYLQMNSLNPEDTAVYYCNAVVVQEESGYTRYDYWGQGTQVTVSS”, the “polyreactivity (PSR sort gate)” value was “low polyreactivity”.
As to “QVQLVESGGGLVQAGGSLRISCAASGYTFPFYTMGWYRQAPGKERELVAAINSGGSTYYADSVKGRFTISRDNAKNTVYLQMNRLKPEDTAVYYCAVEGGFRVRYQAQYRFYYWGQGTEVTVSS”, the “polyreactivity (PSR sort gate)” value was “high polyreactivity”.
Regarding “QVQLVESGGGLVQAGGSLRLSCAASGIIFWTYTMGWYRQAPGKERELVAAISSGGSTNYADSVKGRFTISRDNAKNTVYLQMNSLKPEDTAVYYCAKRRQYQRSYNYWGQGTQVTVSS”, the “polyreactivity (PSR sort gate)” value is listed as “low polyreactivity”.
Take “QVQLVESGGGLVQAGGSLRLSCAASGRSFRYNTMGWYRQAPGKERELVAAITKGAATTYYADSVKGRFTISRDNAKNTVYLKMTSLKPEDTAVYYCNAVYSRIVTQKYWGQGTQVTVSS”: the “polyreactivity (PSR sort gate)” value is listed as “high polyreactivity”.
With “QEQLQESGGGQVQAGGSLLLSCAASGNIIRYYYMGWYRQAPGKERELVAAITYGTSTNYADSVKGRFTISRDNAKNTVYLQMNSLKPEDTAVYYFAVDVNYGDPLDNWGQGTQVTVSC”, the “polyreactivity (PSR sort gate)” value is recorded as “high polyreactivity”.
For “QVQLVESGGGLVQAGGSLRLSCAASGSIYGPYAMGLYRQAPGKERELVAGITRSVGSTYYADSVKGRFTISRDYAKNTVYLQMNSLKPEDTAVYYCNAKWMYSRWAGYDYWGQGTQVTVSS”, the “polyreactivity (PSR sort gate)” value is “low polyreactivity”.
As to “QVQLVESGGGLVQAGGSLRLSCAASGFIFADNAMGWYRQAPGKERELVAGITSGGITNYADSVKGRFTISRDNAKNTVYLQMNSLKPEDTAVYYCAVYYRRWFSRYDYWGQGTQVTVSS”, the “polyreactivity (PSR sort gate)” value was “low polyreactivity”.
As to “QVQLQESGGGLVQAGGSLRLSCAASGSIFEELDMGWYRQAPGKEREFVAAIGTGSTTYYADSVKGRFTISRDNAKNTVYLQMNSLKPEDTAVYYCAVDTWARAYLGYWGQGTQVTVSS”, the “polyreactivity (PSR sort gate)” value is “high polyreactivity”.
As for “QVQPVESGGGLVQAGGSLRLSCAASGLTFYRYAMGWYRQAPGKERELVAAISSGSSTYYADSVKGRFTISRDNSKNTVYLQLNILKPEDTAVYYCAARSIDAHGSRYGYWGQGTQVTVSS”, the “polyreactivity (PSR sort gate)” value is on record as “high polyreactivity”.
With “QVQLVESGGGLVQAGGRLRLSCAASGSIFNSYDMGWYRQAPGKERELVAAINSGGSTYYADSVKGRFTISRDNAKNTDYFQMNSLKPEDTAVYYCAARVVIRYPYTKGYYYWGQGTQVTVSS”, the “polyreactivity (PSR sort gate)” value is recorded as “high polyreactivity”.
Take “QVQLVESGGGLVQAGGSLRLSCAASGSIFRSNAMGWYRQAAGKERELVAAIDYSGTSTTYADSVKGRFTISRDNAKNTVYLQMNSLKPEDTAVYYCNADGYYRGYWSGYEYWGQGTQVTVSS”: the “polyreactivity (PSR sort gate)” value is reported as “low polyreactivity”.
For the sequence “QVQLVESGGGLVQAGGSLRLTWAASGSIFTYYTRGWYRQAPGKERELVATIRYTGGNTYYADSVKGRFTISRDNAKNTVYLQMNILKPEDTAVYYCATGYSYRNVPTFRWLYYWGQGTQVTVSS”, the “polyreactivity (PSR sort gate)” value is reported as “low polyreactivity”.
The same measure for “QVQLVESGGGLVQAGGSLRLSCAASGRTFVGNAMGWYRQAPGKEREFVAAITSRTGSTYYADSVKGRFTISRDNAKYTVYLQMNSLKPEDTAVYYCATPYYQNVYSRKAYNYWGQGTQVTVSS”: “high polyreactivity”.
Turning to “QVQLVESGGGLVQAGGSLRLSCAASGRIYAMGWYRQAPGKERELVAAISYSGGSTYYADSVKGRFTISRDNAKNTVYLQMNSLKPEDTAVYYCAAVIYRGYYYWGQGTQVTVSS”, the “polyreactivity (PSR sort gate)” value was “high polyreactivity”.
With “QVQLVESGGGLVQAGGSLRLSCAASGSTFTVNAMGWYRQAPGKERELVAAISWRGGTTYYADSVKGRFTISRDNAKNTVYLQMNSLKPEDTAVYYCAATSYRRSGRYYYWGQGTQVTVSS”, the “polyreactivity (PSR sort gate)” value is on record as “high polyreactivity”.
With “QVQLLESVGGLVQAGGSLRLSCAASGRIFGSNAMGWYRQAPGKERELVAAITRGGSTNYADSVKGRFTISRDNAKNTVYLQMNSLKPEDTAVYYCAVRWYRKYNYWGQGTQVTVSS” the entry was “high polyreactivity”; with “QVQLVESGAGLVQAGGSLRLSCAASGSTFGINAMGWYRQAHGKEREFVASISWSTGTKYYADSVKGRFTISRDNAKNTVYLQMNSLKAEDTAVYYCAAVCSRFYGLPRYYYCGQGTQVTVSS”, “high polyreactivity”.
As for “QVQLVESGGGLVQAGGSLRLSCAASGRIFRTYALGWYRQAPGKERELVAAINSGGTTYYADSVKGRFTISRDNAKNTVYLQLNSLKPEDTAVYYCNAEYYYAFLRLWYDYWGQGTQVTVSS”, the “polyreactivity (PSR sort gate)” value is reported as “high polyreactivity”.
As for “QVQLVESGEGLVQAGGSLRLSCAASGRTFDRNTMGWYTQAPGKERELVAAISSSGGSTYYADSVKGRFTISRDNAKNTVYLQMNSLKPEDTAVYYCAVRSRQYFRYGYDYWGQGTQVTVSS”, the “polyreactivity (PSR sort gate)” value is “high polyreactivity”.
As for “QVQLVESGGGLVQAGGSLRLSCAASGFIFKSNAMGWDRQAPGKERELVAAISTSGGSTYYADSVKGRFTISRDNAKNTVYLQMNSLKPEDTAVYYCAKRPSRYYYRLDYWGQGTQVTVSS”, the “polyreactivity (PSR sort gate)” value is on record as “high polyreactivity”.
“QVQLVESGVGLLQEGGSLSLSCAASGRTFRWYGMGWYSQAPGKEREFVAAISFRGGTTYYADSVKGRFTISRDNAKNTVYLQMNSLKPEDTAVYYCAARSGYYTSDYKYYYWGQGTQVTVSS”: the “polyreactivity (PSR sort gate)” value is listed as “high polyreactivity”.
On to “QVQLVESGGGLVQAGGSLRLSCAASGRIFGSYAMGWYRQAPGKERELVAVITKRGDSTYYADSVKGRFTISRDNAKNTVYLQMNSLKPEDTAVYYCNAGRVYYSNGYDYWGQGSQVTVSS”, for which the “polyreactivity (PSR sort gate)” value is given as “low polyreactivity”.
As for “QVQLVESGGGLVQAGGSLRLSCAASGFIFGRYAMGWDREAPGKERELVAGIRSSGGSTYYADSVKGRFTISRDNAKNTVYLQMNSLKPEDTAVYYCAARTYGQSLDYWGQGTQVTVSS”, the “polyreactivity (PSR sort gate)” value is reported as “high polyreactivity”.
For the sequence “QVQLQESGGGLVQAGGSLRLICAESGSISQTVYMGWYRQAPGKEREFVAAINAGASTYYADSVKGRFTISRDNAKNTVYLQMNSLKPEDTAVYYCAAEYYSAAYNRYWGQGTQVTVSS”, the “polyreactivity (PSR sort gate)” value is “low polyreactivity”.
